# Like-named read-outs stand apart in the source and are kept apart here.
# T1: human LAG3 expressed on cells (human, UniProt P18627 23-525)
# T1 sequence (looked up): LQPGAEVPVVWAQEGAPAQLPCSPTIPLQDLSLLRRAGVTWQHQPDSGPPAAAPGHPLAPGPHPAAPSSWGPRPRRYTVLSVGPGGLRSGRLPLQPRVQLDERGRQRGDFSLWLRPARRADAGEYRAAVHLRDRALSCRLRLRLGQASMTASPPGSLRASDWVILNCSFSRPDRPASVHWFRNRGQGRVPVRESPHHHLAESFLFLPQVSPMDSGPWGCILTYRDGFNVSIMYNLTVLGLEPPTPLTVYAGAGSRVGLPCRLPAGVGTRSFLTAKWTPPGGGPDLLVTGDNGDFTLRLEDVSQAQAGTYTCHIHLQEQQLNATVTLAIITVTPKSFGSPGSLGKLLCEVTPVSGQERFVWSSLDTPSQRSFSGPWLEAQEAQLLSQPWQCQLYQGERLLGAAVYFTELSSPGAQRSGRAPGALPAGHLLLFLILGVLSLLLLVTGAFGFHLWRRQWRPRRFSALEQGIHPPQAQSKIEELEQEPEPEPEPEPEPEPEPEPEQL
# T2: LAG3 Protein, Human, Recombinant (His Tag) (Sino Biological Catalog No. 16498-H08H) (human, UniProt P18627 23-450)
# T2 construct: Bought protein; also called hLAG3-His; LAG3-His; not shown: His tag
# T2 sequence (looked up): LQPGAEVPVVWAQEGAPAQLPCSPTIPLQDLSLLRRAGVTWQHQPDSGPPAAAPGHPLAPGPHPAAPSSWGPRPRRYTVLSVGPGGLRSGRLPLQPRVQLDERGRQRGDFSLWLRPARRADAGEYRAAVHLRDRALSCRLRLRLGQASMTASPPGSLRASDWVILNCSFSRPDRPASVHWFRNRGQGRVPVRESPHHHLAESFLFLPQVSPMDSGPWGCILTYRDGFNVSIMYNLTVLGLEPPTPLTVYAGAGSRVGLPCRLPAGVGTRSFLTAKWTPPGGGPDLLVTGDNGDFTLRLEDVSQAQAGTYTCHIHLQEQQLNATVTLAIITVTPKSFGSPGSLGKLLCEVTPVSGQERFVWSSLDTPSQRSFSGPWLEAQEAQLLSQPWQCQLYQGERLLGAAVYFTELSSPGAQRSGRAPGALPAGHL
# Columns and labels:
# [1] = biological target: T1, human LAG3 expressed on cells; test: cell-based or functional assay
# [2] = biological target: T1, human LAG3 expressed on cells; test: cell-based or functional assay; remark: listed apart in the source
# [3] = biological target: T1, human LAG3 expressed on cells; test: cell-based or functional assay; remark: listed apart in the source
# [4] = biological target: T2, LAG3 Protein, Human, Recombinant (His …); test: SPR binning on LAG3-His; competitor 27
# Experimental: (§1) The chip surface was regenerated after each cycle with 25 mM NaOH followed by HBS-EP wash provided in the kit.
# [5] = biological target: T2, LAG3 Protein, Human, Recombinant (His …); test: SPR binning on LAG3-His; competitor 17
# Experimental: as §1
# [6] = biological target: T2, LAG3 Protein, Human, Recombinant (His …); test: SPR binning on LAG3-His; competitor 18
# Experimental: as §1
# [7] = biological target: T2, LAG3 Protein, Human, Recombinant (His …); test: SPR binning on LAG3-His; competitor 20
# Experimental: as §1
# [8] = biological target: T2, LAG3 Protein, Human, Recombinant (His …); test: SPR (Biacore), sdAb captured by anti-human Fc, LAG3-His analyte
# Experimental: The binding of the single domain antibodies to recombinant human LAG3 protein (rhLAG3) was examined by Biacore™ assay. […] The coating was carried out according to the manufacturer’s instructions accompanying the kit (Catalog No. BR-1008-39, GE). […] The chip surface was regenerated after each cycle with 25 mM NaOH followed by HBS-EP wash provided in the kit.
# [9] = biological target: T2, LAG3 Protein, Human, Recombinant (His …); test: SPR binning on LAG3-His; competitor BMS
# Experimental: as §1
# [10] = biological target: T2, LAG3 Protein, Human, Recombinant (His …); test: SPR binning on LAG3-His; competitor 1
# Experimental: as §1
# [11] = biological target: T2, LAG3 Protein, Human, Recombinant (His …); test: SPR binning on LAG3-His; competitor 25
# Experimental: as §1
# [12] = biological target: T2, LAG3 Protein, Human, Recombinant (His …); test: SPR binning on LAG3-His; competitor 21
# Experimental: as §1
# [13] = biological target: T2, LAG3 Protein, Human, Recombinant (His …); test: SPR binning on LAG3-His; competitor 24
# Experimental: as §1
# [14] = biological target: T2, LAG3 Protein, Human, Recombinant (His …); test: SPR binning on LAG3-His; competitor 37
# Experimental: as §1
# [15] = biological target: T2, LAG3 Protein, Human, Recombinant (His …); test: SPR binning on LAG3-His; competitor 73
# Experimental: as §1
Binder,"EC50 for IL-2 rescue, hLAG3 Jurkat T system [1] [nM]","Efficacy (IL-2 production, BMS = 100%) [1] [%]","IL-2, % of BMS, at 0.005080526 ug/mL [3] [%]","IL-2, % of BMS, at 0.015241579 ug/mL [3] [%]","IL-2, % of BMS, at 0.045724737 ug/mL [3] [%]","IL-2, % of BMS, at 0.137174211 ug/mL [3] [%]","IL-2, % of BMS, at 0.411522634 ug/mL [3] [%]","IL-2, % of BMS, at 1.234567901 ug/mL [3] [%]","IL-2, % of BMS, at 3.703703704 ug/mL [3] [%]","IL-2, % of BMS, at 11.11111111 ug/mL [3] [%]","IL-2, % of BMS, at 33.33333333 ug/mL [3] [%]","IL-2, % of BMS, at 100 ug/mL [3] [%]",RU [4] [RU],RU [5] [RU],RU [6] [RU],RU [7] [RU],koff [8] [s⁻¹],kon [8] [M⁻¹ s⁻¹],RU [9] [RU],RU [10] [RU],further results
"sdAb No. 18 (VHH, Fc of the tested form not described; also called sdAb 18; not shown: Fc part implied by anti-human Fc capture) VHH: QVQLVESGGGLVQPGGSLRLSCAASGFTLNEHAIGWFRRAPGKEREGVSCISSSDGSTYYHDSVKGRFNMSRDDAKNSVYLQMSSLKPEDTAIYYCAAALGRDCQGGQWKTSSWGQGTQVTVSS",60.6,51.9,7.39,10.9,12.9,5.27,6.53,15.5,35.1,45.5,61.7,60.9,-5.3,-14.7,-9.1,-13.4,3.69e-07,2.31e+06,26.9,-9.5,"IL-2, % of BMS, at 0.005080526 ug/mL [2]: 7.39%; IL-2, % of BMS, at 0.015241579 ug/mL [2]: 10.9%; IL-2, % of BMS, at 0.045724737 ug/mL [2]: 12.9%; IL-2, % of BMS, at 0.137174211 ug/mL [2]: 5.27%; IL-2, % of BMS, at 0.411522634 ug/mL [2]: 6.53%; IL-2, % of BMS, at 1.234567901 ug/mL [2]: 15.5%; IL-2, % of BMS, at 3.703703704 ug/mL [2]: 35.1%; IL-2, % of BMS, at 11.11111111 ug/mL [2]: 45.5%; IL-2, % of BMS, at 33.33333333 ug/mL [2]: 61.7%; IL-2, % of BMS, at 100 ug/mL [2]: 60.9%; RU [11]: 274 RU; RU [12]: -11.4 RU; RU [13]: -9.9 RU; RU [14]: -8.5 RU; RU [15]: -11.1 RU"
"sdAb No. 24 (VHH, Fc of the tested form not described; also called sdAb 24; not shown: Fc part implied by anti-human Fc capture) VHH: QLQLVESGGGLVQPGGSLRLSCAASGFTLNEHAIGWFRQAPGKEREGVSCISSSDGSTYYHDSVKGRFTMSRDDAKNTVYLQMNSLKAEDTAIYYCAAALGRDCQGGQWKTSSWGQGTQVTVSS",35.8,44.7,10.7,2.74,3.44,10.8,1.26,17.8,34.9,47.2,57.7,48.2,-6.6,-13.6,-11.2,-12.9,3.39e-05,894000,30.5,-8.8,Kd [8]: 0.038 nM; RU [11]: 33.2 RU; RU [12]: -12 RU; RU [13]: -10.1 RU; RU [14]: -8.5 RU; RU [15]: -11.3 RU
"sdAb No. 20 (VHH, Fc of the tested form not described; also called sdAb 20; not shown: Fc part implied by anti-human Fc capture) VHH: QVQLVESGGGLVQPGGSLRLSCAASGLTLDGYAVGWFRQAPGKDREGLSCISGSDGSTHYLDSVKGRFTISRDNAKSTMALQMNSLQFGDTAIYYCAARRGSCSGSWTYWGQGTQVTVSS",14.2,26.9,8.49,9.36,3.55,6.06,14.7,20.3,38,33,34.5,35.1,-16.6,-7.8,-12,-24.2,0.000429,1.71e+06,23.3,-9.9,Kd [8]: 0.252 nM; RU [11]: 205 RU; RU [12]: -20.1 RU; RU [13]: -209 RU; RU [14]: -19.3 RU; RU [15]: -21.8 RU
"sdAb No. 21 (VHH, Fc of the tested form not described; also called sdAb 21; not shown: Fc part implied by anti-human Fc capture) VHH: QLQLVESGGGLVQPGGSLRLSCAASGLTLDGYAIAWFRQAPGKEREGLSCISGTDGSTHYLDSVKGRFTISRDNGKNTMALQMNSLQFGDTAIYYCAARRGSCSGSWTYWGQGTQITVSS",3.41,31,10.5,13.7,13.4,21.7,24.6,27.7,32.8,31.7,38.9,35,-14.8,-12,-10.3,-12.6,0.00178,6.41e+06,194,-4.7,Kd [8]: 0.278 nM; RU [11]: 179 RU; RU [12]: -19.1 RU; RU [13]: -18.9 RU; RU [14]: -17.3 RU; RU [15]: -19.5 RU

# From US20230303690A1 (published 2023)
